The values that follow are results of earlier work, collected in patent US12180485B2, “Repressible control of gene expression” (TRUSTEES OF BOSTON UNIVERSITY, priority 2020, dated 2024).

One data set has as its target NS3a-genotype 1b (Hepatitis C virus genotype 1b, UniProt P26663, A1092G/F1173S/K1113A/P1112Q). The note with it: disrupted by NS3a-targeting drugs; read-out: affinity of basal complex with NS3a-genotype 1b; cited from earlier work.
For data set [1] the following is noted: read-out: affinity (Kd); cited from earlier work.
The test system of data set [2] is luciferase and endogenous transcripts. The note with it: cited from earlier work.
The target of the next data set is NS3a/danoprevir complex (Hepatitis C virus genotype 1a, UniProt P27958, T1100M/T1173A). The note with it: cited from earlier work.
A further data set has as its target apo NS3a (Hepatitis C virus genotype 1a, UniProt P27958, T1100M/T1173A). The following applies: cited from earlier work.

Some results are limits rather than exact numbers.

GELDELVYLLDGPGYDPIHSD [ANR]: the Kd at NS3a-genotype 1b was 10 nM.

B1: aCaffVHH: VHH camelid antibody that specifically binds to caffeine, SEQ ID NO: 1980 (protein)
VHH: EVQLQASGGGLVQAGGSLRLSCTASGRTGTIYSMAWFRQAPGKEREFLATVGWSSGITYYMDSVKGRFTISRDNAKNSAYLQMNSLKPEDTAVYYCTATRAYSVGYDYWGQGTQVTVSH
Take B1: the Kd in data set [1] was 500 nM.

B2: LwaCas13b: Leptotrichia wadei Cas13a, SEQ ID NO: 2 (protein, listed as Leptotrichia wadei)
chain: MKVTKVDGISHKKYIEEGKLVKSTSEENRTSERLSELLSIRLDIYIKNPDNASEEENRIRRENLKKFFSNKVLHLKDSVLYLKNRKEKNAVQDKNYSEEDISEYDLKNKNSFSVLKKILLNEDVNSEELEIFRKDVEAKLNKINSLKYSFEENKANYQKINENNVEKVGGKSKRNIIYDYYRESAKRNDYINNVQEAFDKLYKKEDIEKLFFLIENSKKHEKYKIREYYHKIIGRKNDKENFAKIIYEEIQNVNNIKELIEKIPDMSELKKSQVFYKYYLDKEELNDKNIKYAFCHFVEIEMSQLLKNYVYKRLSNISNDKIKRIFEYQNLKKLIENKLLNKLDTYVRNCGKYNYYLQVGEIATSDFIARNRQNEAFLRNIIGVSSVAYFSLRNILETENENGITGRMRGKTVKNNKGEEKYVSGEVDKIYNENKQNEVKENLKMFYSYDFNMDNKNEIEDFFANIDEAISSIRHGIVHFNLELEGKDIFAFKNIAPSEISKKMFQNEINEKKLKLKIFKQLNSANVFNYYEKDVIIKYLKNTKFNFVNKNIPFVPSFTKLYNKIEDLRNTLKFFWSVPKDKEEKDAQIYLLKNIYYGEFLNKFVKNSKVFFKITNEVIKINKQRNQKTGHYKYQKFENIEKTVPVEYLAIIQSREMINNQDKEEKNTYIDFIQQIFLKGFIDYLNKNNLKYIESNNNNDNNDIFSKIKIKKDNKEKYDKILKNYEKHNRNKEIPHEINEFVREIKLGKILKYTENLNMFYLILKLLNHKELTNLKGSLEKYQSANKEETFSDELELINLLNLDNNRVTEDFELEANEIGKFLDFNENKIKDRKELKKFDTNKIYFDGENIIKHRAFYNIKKYGMLNLLEKIADKAKYKISLKELKEYSNKKNEIEKNYTMQQNLHRKYARPKKDEKFNDEDYKEYEKAIGNIQKYTHLKNKVEFNELNLLQGLLLKILHRLVGYTSIWERDLRFRLKGEFPENHYIEEIFNFDNSKNVKYKSGQIVEKYINFYKELYKDNVEKRSIYSDKKVKKLKQEKKDLYIRNYIAHFNYIPHAEISLLEVLENLRKLLSYDRKLKNAIMKSIVDILKEYGFVATFKIGADKKIEIQTLESEKIVHLKNLKKKKLMTDRNSEELCELVKVMFEYKALE
Turning to B2, the knockdown efficiency in data set [2] is given as 50%.

B3: DNCR2: danoprevir/NS3 complex reader, SEQ ID NO: 163 (protein)
chain: SSDEEEARELIERAKEAAERAQEAAERTGDPRVRELARELKRLAQEAAEEVKRDPSSSDVNEALKLIVEAIEAAVDALEAAERTGDPEVRELARELVRLAVEAAEEVQRNPSSSDVNEALHSIVYAIEAAIFALEAAERTGDPEVRELARELVRLAVEAAEEVQRNPSSRNVEHALMRIVLAIYLAEENLREAEESGDPEKREKARERVREAVERAEEVQRDPSGWLNH
Take B3: in the data set with NS3a/danoprevir complex, the “selectivity over NS3a bound to the drugs grazoprevir or asunaprevir” value is > 20,000 fold. Further, in the data set with NS3a/danoprevir complex (free danoprevir, no NS3a), the “binding to free danoprevir” value was “does not bind substantially”. Also, the Kd with NS3a/danoprevir complex (read-out: affinity for the NS3a/danoprevir complex) was 0.036 nM. Moreover, the “binding to apo NS3a” value in the data set with apo NS3a is “no detectable binding”.
